The values below come from publication PMC5624674, “CbtA toxin of Escherichia coli inhibits cell division and cell elongation via direct and independent interactions with FtsZ and MreB” (PLoS Genetics, 2017).

B5: α-FtsZ fusion protein (wild-type E. coli FtsZ) (natural protein, UniProt P0A9A6 1-383, looked up)
chain: MFEPMELTNDAVIKVIGVGGGGGNAVEHMVRERIEGVEFFAVNTDAQALRKTAVGQTIQIGSGITKGLGAGANPEVGRNAADEDRDALRAALEGADMVFIAAGMGGGTGTGAAPVVAEVAKDLGILTVAVVTKPFNFEGKKRMAFAEQGITELSKHVDSLITIPNDKLLKVLGRGISLLDAFGAANDVLKGAVQGIAELITRPGLMNVDFADVRTVMSEMGYAMMGSGVASGEDRAEEAAEMAISSPLLEDIDLSGARGVLVNITAGFDLRLDEFETVGNTIRAFASDNATVVIGTSLDPDMNDELRVTVVATGIGMDKRPEITLVTNKQVQQPVMDRYQQHGMAPLTQEQKPVAKVVNDNAPQTAKEPDYLDIPAFLRKQAD
notes: also called λCI-FtsZ; Eco FtsZ; not shown: RNA polymerase α subunit N-terminal domain, N-terminal, kept

Test in all cases: two-hybrid
Data set [1] concerns the target T1, λCI-RodZNTD (residues 2–84) (E. coli, UniProt P27434 2-84).
T1 construct: also called cytoplasmic N-terminal domain of RodZ; not shown: λCI, N-terminal, kept
Particulars: partners not purified.

The data set “two-hybrid” concerns the molecule itself.
Data set [2] deals with T2, λCI-CbtA fusion protein (wild-type CbtA toxin of E. coli) (E. coli, UniProt P64524 1-124).
T2 construct: also called YeeV; source: bacterial two-hybrid fusion, produced in E. coli reporter strain FW102 OL2-62; not shown: λCI, N-terminal, kept
T2 sequence: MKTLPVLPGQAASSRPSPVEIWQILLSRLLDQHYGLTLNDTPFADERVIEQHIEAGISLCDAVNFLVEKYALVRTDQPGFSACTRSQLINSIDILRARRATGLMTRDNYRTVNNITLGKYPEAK
Conditions: partners not purified.

Data set [3] has as its target T3, λCI-ZipACTD (residues 186–328) (E. coli, UniProt P77173 186-328).
T3 construct: also called C-terminal domain of ZipA; not shown: λCI, N-terminal, kept
Conditions: partners not purified.

Data set [4] addresses B5. Particulars: partners not purified.
The target in another data set is T4, λCI-CbtA-V48E (E. coli, UniProt P64524 1-124, V48E).
T4 construct: source: bacterial two-hybrid fusion, produced in E. coli reporter strain FW102 OL2-62; not shown: λCI, N-terminal, kept
T4 sequence: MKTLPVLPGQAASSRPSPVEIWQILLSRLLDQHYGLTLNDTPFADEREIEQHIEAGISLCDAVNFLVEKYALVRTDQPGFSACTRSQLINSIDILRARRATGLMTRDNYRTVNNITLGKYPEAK
Particulars: partners not purified.

Bounds are passed on as bounds.

T1 sequence (P27434 2-84): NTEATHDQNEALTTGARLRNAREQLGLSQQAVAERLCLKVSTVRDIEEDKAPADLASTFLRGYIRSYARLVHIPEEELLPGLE

B1: α-MreB-E196G (natural protein, E. coli, UniProt P0A9X4 1-347, looked up)
chain: MLKKFRGMFSNDLSIDLGTANTLIYVKGQGIVLNEPSVVAIRQDRAGSPKSVAAVGHDAKQMLGRTPGNIAAIRPMKDGVIADFFVTEKMLQHFIKQVHSNSFMRPSPRVLVCVPVGATQVERRAIRESAQGAGAREVFLIEEPMAAAIGAGLPVSEATGSMVVDIGGGTTEVAVISLNGVVYSSSVRIGGDRFDGAIINYVRRNYGSLIGEATAERIKHEIGSAYPGDEVREIEVRGRNLAEGVPRGFTLNSNEILEALQEPLTGIVSAVMVALEQCPPELASDISERGMVLTGGGALLRNLDRLLMEETGIPVVVAEDPLTCVARGGGKALEMIDMHGGDLFSEE
notes: not shown: RNA polymerase α subunit N-terminal domain, N-terminal, kept
For B1, in data set [1], the “percent reduction of lacZ expression against wild-type α-MreB” value is < 30%.

B2: α-MreB-I126V (natural protein, E. coli, UniProt P0A9X4 1-347, looked up)
chain: MLKKFRGMFSNDLSIDLGTANTLIYVKGQGIVLNEPSVVAIRQDRAGSPKSVAAVGHDAKQMLGRTPGNIAAIRPMKDGVIADFFVTEKMLQHFIKQVHSNSFMRPSPRVLVCVPVGATQVERRAVRESAQGAGAREVFLIEEPMAAAIGAGLPVSEATGSMVVDIGGGTTEVAVISLNGVVYSSSVRIGGDRFDEAIINYVRRNYGSLIGEATAERIKHEIGSAYPGDEVREIEVRGRNLAEGVPRGFTLNSNEILEALQEPLTGIVSAVMVALEQCPPELASDISERGMVLTGGGALLRNLDRLLMEETGIPVVVAEDPLTCVARGGGKALEMIDMHGGDLFSEE
notes: as for B1
Turning to B2, the “percent reduction of lacZ expression against wild-type α-MreB” value in data set [1] is < 30%.

B3: α-MreB-E262G (natural protein, E. coli, UniProt P0A9X4 1-347, looked up)
chain: MLKKFRGMFSNDLSIDLGTANTLIYVKGQGIVLNEPSVVAIRQDRAGSPKSVAAVGHDAKQMLGRTPGNIAAIRPMKDGVIADFFVTEKMLQHFIKQVHSNSFMRPSPRVLVCVPVGATQVERRAIRESAQGAGAREVFLIEEPMAAAIGAGLPVSEATGSMVVDIGGGTTEVAVISLNGVVYSSSVRIGGDRFDEAIINYVRRNYGSLIGEATAERIKHEIGSAYPGDEVREIEVRGRNLAEGVPRGFTLNSNEILEALQGPLTGIVSAVMVALEQCPPELASDISERGMVLTGGGALLRNLDRLLMEETGIPVVVAEDPLTCVARGGGKALEMIDMHGGDLFSEE
notes: as for B1
In the case of B3, in data set [1], the “percent reduction of lacZ expression against wild-type α-MreB” value was < 30%.

B4: α-MreB-V173A (natural protein, E. coli, UniProt P0A9X4 1-347, looked up)
chain: MLKKFRGMFSNDLSIDLGTANTLIYVKGQGIVLNEPSVVAIRQDRAGSPKSVAAVGHDAKQMLGRTPGNIAAIRPMKDGVIADFFVTEKMLQHFIKQVHSNSFMRPSPRVLVCVPVGATQVERRAIRESAQGAGAREVFLIEEPMAAAIGAGLPVSEATGSMVVDIGGGTTEAAVISLNGVVYSSSVRIGGDRFDEAIINYVRRNYGSLIGEATAERIKHEIGSAYPGDEVREIEVRGRNLAEGVPRGFTLNSNEILEALQEPLTGIVSAVMVALEQCPPELASDISERGMVLTGGGALLRNLDRLLMEETGIPVVVAEDPLTCVARGGGKALEMIDMHGGDLFSEE
notes: as for B1
B4: in data set [1], the “percent reduction of lacZ expression against wild-type α-MreB” value is < 30%. For B5, the “fold increase in lacZ expression” value was 4 fold in “two-hybrid”, 18 fold in data set [2] and 10 fold in data set [3].

B6: α-FtsZ-L169P (natural protein, E. coli, UniProt P0A9A6 1-383, looked up)
chain: MFEPMELTNDAVIKVIGVGGGGGNAVEHMVRERIEGVEFFAVNTDAQALRKTAVGQTIQIGSGITKGLGAGANPEVGRNAADEDRDALRAALEGADMVFIAAGMGGGTGTGAAPVVAEVAKDLGILTVAVVTKPFNFEGKKRMAFAEQGITELSKHVDSLITIPNDKLPKVLGRGISLLDAFGAANDVLKGAVQGIAELITRPGLMNVDFADVRTVMSEMGYAMMGSGVASGEDRAEEAAEMAISSPLLEDIDLSGARGVLVNITAGFDLRLDEFETVGNTIRAFASDNATVVIGTSLDPDMNDELRVTVVATGIGMDKRPEITLVTNKQVQQPVMDRYQQHGMAPLTQEQKPVAKVVNDNAPQTAKEPDYLDIPAFLRKQAD
notes: as for B1
As for B6, in data set [4], the “percent reduction of lacZ expression against wild-type α-FtsZ” value is < 25%.

B7: α-FtsZ-D180K (natural protein, E. coli, UniProt P0A9A6 1-383, looked up)
chain: MFEPMELTNDAVIKVIGVGGGGGNAVEHMVRERIEGVEFFAVNTDAQALRKTAVGQTIQIGSGITKGLGAGANPEVGRNAADEDRDALRAALEGADMVFIAAGMGGGTGTGAAPVVAEVAKDLGILTVAVVTKPFNFEGKKRMAFAEQGITELSKHVDSLITIPNDKLLKVLGRGISLLKAFGAANDVLKGAVQGIAELITRPGLMNVDFADVRTVMSEMGYAMMGSGVASGEDRAEEAAEMAISSPLLEDIDLSGARGVLVNITAGFDLRLDEFETVGNTIRAFASDNATVVIGTSLDPDMNDELRVTVVATGIGMDKRPEITLVTNKQVQQPVMDRYQQHGMAPLTQEQKPVAKVVNDNAPQTAKEPDYLDIPAFLRKQAD
notes: as for B1
As to B7, in the data set with λCI-CbtA-V48E, the “fold increase in lacZ expression” value turned out to be 9 fold.

B8: α-FtsZ-D180N (natural protein, E. coli, UniProt P0A9A6 1-383, looked up)
chain: MFEPMELTNDAVIKVIGVGGGGGNAVEHMVRERIEGVEFFAVNTDAQALRKTAVGQTIQIGSGITKGLGAGANPEVGRNAADEDRDALRAALEGADMVFIAAGMGGGTGTGAAPVVAEVAKDLGILTVAVVTKPFNFEGKKRMAFAEQGITELSKHVDSLITIPNDKLLKVLGRGISLLNAFGAANDVLKGAVQGIAELITRPGLMNVDFADVRTVMSEMGYAMMGSGVASGEDRAEEAAEMAISSPLLEDIDLSGARGVLVNITAGFDLRLDEFETVGNTIRAFASDNATVVIGTSLDPDMNDELRVTVVATGIGMDKRPEITLVTNKQVQQPVMDRYQQHGMAPLTQEQKPVAKVVNDNAPQTAKEPDYLDIPAFLRKQAD
notes: as for B1
For the molecule B8, the “percent reduction of lacZ expression against wild-type α-FtsZ” value in data set [4] is < 25%.

B9: α-FtsZ-S177P (natural protein, E. coli, UniProt P0A9A6 1-383, looked up)
chain: MFEPMELTNDAVIKVIGVGGGGGNAVEHMVRERIEGVEFFAVNTDAQALRKTAVGQTIQIGSGITKGLGAGANPEVGRNAADEDRDALRAALEGADMVFIAAGMGGGTGTGAAPVVAEVAKDLGILTVAVVTKPFNFEGKKRMAFAEQGITELSKHVDSLITIPNDKLLKVLGRGIPLLDAFGAANDVLKGAVQGIAELITRPGLMNVDFADVRTVMSEMGYAMMGSGVASGEDRAEEAAEMAISSPLLEDIDLSGARGVLVNITAGFDLRLDEFETVGNTIRAFASDNATVVIGTSLDPDMNDELRVTVVATGIGMDKRPEITLVTNKQVQQPVMDRYQQHGMAPLTQEQKPVAKVVNDNAPQTAKEPDYLDIPAFLRKQAD
notes: as for B1
B9: the “percent reduction of lacZ expression against wild-type α-FtsZ” value in data set [4] is < 25%.
